Data taken from patent CN109776677A (SHANGHAI PHARMEXPLORER COMPANY LTD, dated 2019).

B1: c29D9H8 (antibody, V domains shown)
VH: QVQLQQSGAELVRPGASVTLSCKASGYTFTDYEMHWVKQTPVHGLEWIGGIDPETGGTASNQKFKGKAILTADKSSSTAYMELRSLTSEDSAVYYCTSGDYFGGGPFAYWGQGTLVTVSA
VL: DIKMTQSPSSMYASLGERVTITCKASQDINSYLSWFQQKPGKSPKTLIYRANRLVDGVPSRFSGSGSGQDYSLTISSLDYEDMGIYYCLQYDEFPYTFGGGTKLEIK
B2: 35E2C3 (antibody, V domains shown)
VH: EVQLQESGPGLAKPSQTLSLTCSVTGYSITSDYWNWIRKFPGNKLEYMGYISYNGNTYYNPSLKSQISITRDTSKNQLYLQLKSATTEDTATYYCARLAKWTWYFDIWGTGTTVTVSS
VL: DIQMNQSPSSLSASLGDTITITCHASQNINVWLSWYQQKPGSLPKLLIYKASDLHTGVPSRFSGSGSGTGFTLTISSLQPEDIATYYCQQGQSYPYTFGGGTKLEIK
notes: also called 先导抗体; IL-13先导抗体

Assays:
[1] = target: 免疫原A (his标签重组人IL-13蛋白) (human) (UniProt P35225); test: SPR (Biacore), steps as Example 9
[2] = target: 免疫原A (his标签重组人IL-13蛋白) (human) (UniProt P35225); test: SPR (Biacore), sentence on the group of 表27
[3] = target: 免疫原A (his标签重组人IL-13蛋白) (human) (UniProt P35225); test: SPR (Biacore), antibody captured on anti-human Fc CM5 chip, immunogen A as analyte, 1:1 global fit
鼠IL-13 = target: T1, 鼠IL-13 (小鼠 (mouse), UniProt P20109 19-131, limits assumed); test: ELISA, IL-13 at 0.5 μg/mL on streptavidin plate, serially diluted antibody, HRP second antibody
T1 construct: Bought protein; also called 小鼠IL-13; 鼠IL-13变体
T1 sequence (looked up): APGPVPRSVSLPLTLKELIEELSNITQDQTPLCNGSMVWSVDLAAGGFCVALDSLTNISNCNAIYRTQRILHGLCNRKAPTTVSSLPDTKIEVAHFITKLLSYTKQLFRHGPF

| Binder | Kd [1] [nM] | koff [1] [s⁻¹] | kon [1] [M⁻¹ s⁻¹] | Kd [2] [nM] | Kd [3] [nM] | koff [3] [s⁻¹] | kon [3] [M⁻¹ s⁻¹] | binding result (鼠IL-13) |
| --- | --- | --- | --- | --- | --- | --- | --- | --- |
| B1 | 0.0247 | 0.000962 | 3.9e+07 | < 90 | 0.0324 | 0.000813 | 2.51e+07 | – |
| B2 | 0.86 | 0.000248 | 289000 | < 90 | 0.863 | 0.00026 | 300000 | no binding |
